For orientation: EC50 means the midpoint of the concentration-response curve. The term Kd denotes the constant that tells how readily two partners part at equilibrium. A word on the koff: it is the rate constant with which the complex falls apart. As usually defined, the kon is the second-order rate constant of association.

Assay [1] deals with T1, human MSLN-R3 protein (human, UniProt Q13421 487-598).
T1 construct: also called hMSLN-R3
The assay is described as follows: ELISA, MSLN-R3 coated, antibody 0.1 nM. In general terms: An ELISA detects its analyte on a solid surface through an enzyme-linked reagent.

Assay [2] has as its target T2, human MSLN-R3 on HEK293T-hMSLN-R3 recombinant cells (human, UniProt Q13421 487-606).
T2 construct: the C-terminal limit is uncertain; also called human MSLN-R3 membrane protein
The assay is described as follows: FACS, HEK293T-hMSLN-R3 cells. In general terms: In flow cytometry, cells or beads pass a laser one at a time.

The target in assay [3] is T2, human MSLN-R3 on HEK293T-hMSLN-R3 …. The assay is described as follows: FACS, HEK293T-hMSLN-R3 cells. The source holds these as a separate data set.
Assay [4] concerns the target T1, human MSLN-R3 protein. The assay is described as follows: ELISA, MSLN-R3 coated, antibody 0.0001 nM.
In assay [5] the target is T1, human MSLN-R3 protein. Kind of assay: ELISA, MSLN-R3 coated, antibody 1 nM.
The target of assay [6] is T2, human MSLN-R3 on HEK293T-hMSLN-R3 …. The assay is described as follows: FACS, HEK293T-hMSLN-R3 cells. This is another data set of the same source.
Assay [7] has as its target T1, human MSLN-R3 protein. Kind of assay: ELISA, MSLN-R3 coated, antibody 100 nM.
The target of assay [8] is T1, human MSLN-R3 protein. The assay is described as follows: ELISA, MSLN-R3 coated, antibody 0.01 nM.
Assay [9] has as its target T2, human MSLN-R3 on HEK293T-hMSLN-R3 …. Kind of assay: FACS, HEK293T-hMSLN-R3 cells. This is another data set of the same source.
The target is the same in assay [10]. The assay is described as follows: FACS, HEK293T-hMSLN-R3 cells. This is another data set of the same source.
Assay [11] concerns the target T1, human MSLN-R3 protein. Kind of assay: ELISA, MSLN-R3 coated, antibody 10 nM.
Assay [12] addresses T1, human MSLN-R3 protein. The assay is described as follows: ELISA, MSLN-R3 coated, antibody 0.001 nM.
The target in assay [13] is human MSLN on OVCAR3 tumor cells (human, UniProt Q13421 296-598). The assay is described as follows: FACS, OVCAR3 cells.
For assay [14], the target named is T3, monkey MSLN on HEK293T-monkey MSLN recombinant cells (monkey).
T3 construct: Full-length precursor as transfected; processing on the cell is not described; also called HEK293-monkey MSLN
T3 chain: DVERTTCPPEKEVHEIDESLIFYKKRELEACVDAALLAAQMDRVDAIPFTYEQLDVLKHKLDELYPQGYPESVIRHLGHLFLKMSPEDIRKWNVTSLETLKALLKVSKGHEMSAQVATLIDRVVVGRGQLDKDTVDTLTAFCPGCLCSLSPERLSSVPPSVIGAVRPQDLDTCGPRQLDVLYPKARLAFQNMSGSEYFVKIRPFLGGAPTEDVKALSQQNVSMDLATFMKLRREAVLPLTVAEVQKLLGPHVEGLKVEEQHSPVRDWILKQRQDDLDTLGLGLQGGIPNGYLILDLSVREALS
The assay is described as follows: FACS, HEK293T-monkey MSLN cells.

Assay [15] deals with T4, human MSLN-FL-his protein (human, UniProt Q13421 296-580).
T4 construct: made in HEK293E cells, purified on nickel column; also called hMSLN-FL-his; human MSLN full-length protein; not shown: His tag
The assay is described as follows: competitive ELISA; row Tab142.

In assay [16] the target is T4, human MSLN-FL-his protein. The assay is described as follows: competitive ELISA; row Tab021.
Assay [17] addresses T4, human MSLN-FL-his protein. Kind of assay: SPR (Biacore), antibody captured on Protein A chip. (In general: In SPR one partner is held on a chip, and binding of the other changes the refractive index at the surface.)
Assay [18] addresses T4, human MSLN-FL-his protein. The assay is described as follows: competitive ELISA; row F7.18.10.
The target in assay [19] is T4, human MSLN-FL-his protein. The assay is described as follows: competitive ELISA; row F7.2.3.
The target of assay [20] is T5, human MSLN-R2-his protein (human, UniProt Q13421 391-486).
T5 construct: also called hMSLN-R2-his; not shown: His tag
The assay is described as follows: ELISA; antibody 0.1 nM.

Assay [21] has as its target T5, human MSLN-R2-his protein. Kind of assay: ELISA; antibody 0.01 nM.
Assay [22] concerns the target T6, human MSLN-R3-his protein (human, UniProt Q13421 487-598).
T6 construct: also called hMSLN-R3-his; not shown: His tag
The assay is described as follows: ELISA; antibody 0 nM (blank).

Assay [23] concerns the target T6, human MSLN-R3-his protein. The assay is described as follows: ELISA; antibody 10 nM.
Assay [24] addresses T5, human MSLN-R2-his protein. The assay is described as follows: ELISA; antibody 0.0001 nM.
Assay [25] deals with T6, human MSLN-R3-his protein. The assay is described as follows: ELISA; antibody 100 nM.
Assay [26] deals with T6, human MSLN-R3-his protein. The assay is described as follows: ELISA; antibody 0.01 nM.
In assay [27] the target is T5, human MSLN-R2-his protein. Kind of assay: ELISA; antibody 1 nM.
Assay [28] has as its target T6, human MSLN-R3-his protein. The assay is described as follows: ELISA; antibody 0.0001 nM.
Assay [29] deals with T5, human MSLN-R2-his protein. Kind of assay: ELISA; antibody 0 nM (blank).
For assay [30], the target named is T6, human MSLN-R3-his protein. Kind of assay: ELISA; antibody 1 nM.
Assay [31] deals with T5, human MSLN-R2-his protein. The assay is described as follows: ELISA; antibody 1 nM. This is another data set of the same source.
For assay [32], the target named is T5, human MSLN-R2-his protein. The assay is described as follows: ELISA; antibody 10 nM.
In assay [33] the target is T6, human MSLN-R3-his protein. The assay is described as follows: ELISA; antibody 0.001 nM.
In assay [34] the target is T6, human MSLN-R3-his protein. Kind of assay: ELISA; antibody 1 nM. The source holds these as a separate data set.
In assay [35] the target is T5, human MSLN-R2-his protein. Kind of assay: ELISA; antibody 100 nM.
Assay [36] concerns the target T5, human MSLN-R2-his protein. The assay is described as follows: ELISA; antibody 0.001 nM.
Assay [37] addresses T6, human MSLN-R3-his protein. The assay is described as follows: ELISA; antibody 0.1 nM.

Like-named read-outs stand apart in the source and are kept apart here.
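For Kd in this document: flow cell at 25 °C, antigen injected for 240 s at five concentrations from 200 nM downward, dissociation followed up to 600 s, double-referenced, fitted with Langmuir 1:1 model.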
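For koff in this document: flow cell at 25 °C, antigen injected for 240 s at five concentrations from 200 nM downward, dissociation followed up to 600 s, double-referenced, fitted with Langmuir 1:1 model.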
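For kon in this document: flow cell at 25 °C, antigen injected for 240 s at five concentrations from 200 nM downward, dissociation followed up to 600 s, double-referenced, fitted with Langmuir 1:1 model.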

T5 sequence (Q13421 other isoform, or with tags, fused parts or gaps): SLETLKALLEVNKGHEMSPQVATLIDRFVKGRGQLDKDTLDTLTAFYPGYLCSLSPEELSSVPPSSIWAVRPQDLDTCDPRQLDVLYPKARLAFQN
T2 sequence (Q13421 495-614): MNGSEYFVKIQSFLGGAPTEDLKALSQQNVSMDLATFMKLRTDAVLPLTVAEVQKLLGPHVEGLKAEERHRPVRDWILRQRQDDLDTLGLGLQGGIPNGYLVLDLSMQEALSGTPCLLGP
T6 sequence (Q13421 495-606): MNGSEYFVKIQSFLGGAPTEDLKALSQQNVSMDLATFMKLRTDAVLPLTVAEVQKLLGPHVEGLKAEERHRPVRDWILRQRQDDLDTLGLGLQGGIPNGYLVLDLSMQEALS
T1 sequence (Q13421 495-606): as above
T4 sequence (Q13421 other isoform, or with tags, fused parts or gaps): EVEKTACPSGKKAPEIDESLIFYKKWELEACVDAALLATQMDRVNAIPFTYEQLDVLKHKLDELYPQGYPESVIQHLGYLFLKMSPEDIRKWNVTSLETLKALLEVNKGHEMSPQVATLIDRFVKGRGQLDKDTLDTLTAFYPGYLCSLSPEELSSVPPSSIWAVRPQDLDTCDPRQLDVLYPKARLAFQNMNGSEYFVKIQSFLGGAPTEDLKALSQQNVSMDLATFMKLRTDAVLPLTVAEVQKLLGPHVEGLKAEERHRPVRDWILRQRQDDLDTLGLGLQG
Sequence of human MSLN on OVCAR3 tumor cells (Q13421 other isoform, or with tags, fused parts or gaps): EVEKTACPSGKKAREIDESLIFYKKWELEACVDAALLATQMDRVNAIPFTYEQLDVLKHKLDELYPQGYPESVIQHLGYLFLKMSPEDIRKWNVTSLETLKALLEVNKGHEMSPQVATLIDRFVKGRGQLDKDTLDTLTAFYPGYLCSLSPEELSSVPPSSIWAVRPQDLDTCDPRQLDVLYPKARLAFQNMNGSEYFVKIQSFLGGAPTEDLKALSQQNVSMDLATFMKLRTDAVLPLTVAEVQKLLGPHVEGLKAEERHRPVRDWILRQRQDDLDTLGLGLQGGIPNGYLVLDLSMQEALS

B1: Tab111 (scFv, not shown: small tags and cut ends)
scFv: DVVMTQTPASVSEPVGGTVTIKCQASQRISSYLSWYQQKPGQRPKLLIFGASTLASGVPSRFKGSGSGTEYTLTISDLECADAATYYCQSYAYFDSNNWHAFGGGTEVVVGGGGSGGGGSGGGGSQQQLEESGGGLVKPEGSLTLTCKASGFDLGFYFYACWVRQAPGKGLEWIACIYTAGSGSTYYASWAKGRFTISKASSTTVTLQMTSLAAADTATYFCARSTANTRSTYYLNLWGPGTLVTVSS
notes: also called YP218 VL-(G4S)3-VH-his antibody; positive control
In the case of B1, the OD450 nm was found to be 0.07 OD in the assay with human MSLN-R3 protein [1]; 0.05 OD in the assay with human MSLN-R3 protein [4]; 0.25 OD with human MSLN-R3 protein [5]; 1.89 OD in the assay with human MSLN-R3 protein [7]; 0.05 OD in the assay with human MSLN-R3 protein [8]; 1.05 OD with human MSLN-R3 protein [11]. This molecule displayed an OD450 nm with human MSLN-R3 protein [12] of 0.05 OD. Also, the EC50 turned out to be 0.76 nM in assay [2]; 30.2 nM in assay [3]; 0.76 nM in assay [6]; 1.22 nM in assay [9]; 1.6 nM in assay [10]. For the same molecule, the Maximum_MFI in [2] turned out to be 2120 MFI; in assay [3] it was 777 MFI; in assay [6], 2120 MFI; in assay [9] it was 4970 MFI; in assay [10], 3070 MFI.

B2: F7.44.20-VL-VH (scFv)
chain: QIVLTQSPALMSASPGEKVTLTCSASSSVISSYLSWYQQKPGSSPKLLIYRTSNLASGVPARFSGSGSGTSYSLTISSMEAEDAASYFCHQWSSFPYTFGGGTKLEIKGGGGSGGGGSGGGGSEVQLQQSGPELVKPGASVKIPCKASGYTFTDYNMDWVKQSHGKSLEWIGDINPSTGGTIYNQKFNGKATLTEDKSASTVYMEFRSLTSDDTAVYYCARRRIGTGYFDVWGTGTTVTVSS
As to B2, the results for the EC50 in [2], in assay [13] and in assay [14] were 0.48 nM, 1.09 nM and 2.97 nM, respectively. Also, the values for the Maximum_MFI in [2], in assay [13] and in assay [14] were 1850 MFI, 2920 MFI and 11100 MFI, respectively.

B3: S009-F7.2.3 (antibody, human IgG1, kappa, V domains shown)
VH: ELQLVESGGDLVKPGGSLKLSCAASGFTFSSNGMSWLRQTPDKRLEWVATISSGGRYTYYPDSVKGRFTISRDNAKNTLYLQMSSLKSEDTAMYYCARRGIYDYFDCWGQGTTLTVSS
VL: DIQMTQSPASLSISVGETVTITCRASENIHSSLAWYQQKQGKSPQLLVYAATNLADGVPSRFSGSGSGSQYSLKINSLQSEDFGTYYCQHFWGTPWTFGGGTKLDIKR
notes: human-murine chimeric antibody, human IgG1/kappa constant regions
Consider B3, for which the competition rate in [15] is 3.48%; in [16], -3.83%; in assay [18] it was 54.1%; in assay [19] it was 93.3%. In addition, binding in assay [17] was put at a Kd of 13.2 nM. Also, in [17], the koff stood at 0.00851 s⁻¹. This molecule had a kon in [17] of 643000 M⁻¹ s⁻¹.

B4: F3.38.10-L2H3a (scFv, not shown: small tags and cut ends)
scFv: DIVMTQSPDSLAVSLGERATINCRSSQSLIHSDGNTYLQWYQQKPGQSPKLLIYKVSNRFSGVPDRFSGSGSGTDFTLTISSLQAEDVAVYYCSQTTHVPFTFGQGTKLEIKGGGGSGGGGSGGGGSEVQLVQSGAEVKKPGASVKVSCKASGYIFTDYYMNWVRQAPGQRLEWMGVINPKQGVISHNQKFKGRVTITVDKSANTAYMELSSLRSEDTAVYYCANYGSRFYAMDYWGQGTTVTVSS
notes: also called S009-F3.38.10 humanized antibody VL2 + VH3a
Regarding B4, the OD450 nm in the assay with human MSLN-R3 protein [1] amounted to 0.06 OD; in the assay with human MSLN-R3 protein [4], 0.05 OD; in the assay with human MSLN-R3 protein [5], 0.12 OD; with human MSLN-R3 protein [7] it was 1.88 OD; with human MSLN-R3 protein [8], 0.05 OD; with human MSLN-R3 protein [11], 0.72 OD. In the assay with human MSLN-R3 protein [12], this molecule displayed an OD450 nm of 0.05 OD. In [3], the EC50 was determined as 166 nM. Moreover, the Maximum_MFI in assay [3] was found to be 795 MFI.

B5: Tab106 (YP218, hIgG1) (antibody, V domains shown)
VH: QQQLEESGGGLVKPEGSLTLTCKASGFDLGFYFYACWVRQAPGKGLEWIACIYTAGSGSTYYASWAKGRFTISKASSTTVTLQMTSLAAADTATYFCARSTANTRSTYYLNLWGPGTLVTVSS
VL: DVVMTQTPASVSEPVGGTVTIKCQASQRISSYLSWYQQKPGQRPKLLIFGASTLASGVPSRFKGSGSGTEYTLTISDLECADAATYYCQSYAYFDSNNWHAFGGGTEVVVRT
notes: Control antibody; VH and VL recombined into human IgG1 CH and CL expression vectors; also called YP218 human IgG1 antibody; anti-human MSLN-R3 antibody
For B5, the OD450 nm in [20] was determined as 0.05; in assay [21] it was 0.04; in assay [22], 0.05; in [23], 1.75; in assay [24] it was 0.04; in [25], 2.29. Also, the OD450 nm in assay [26] came out at 0.06; in [27], 0.05; in [28], 0.05; in [29], 0.05; in assay [30], 0.62; in assay [31], 0.05. Further, the OD450 nm in assay [32] came out at 0.11; in [33], 0.05; in assay [34], 0.62; in assay [35] it was 0.7; in assay [36], 0.04; in assay [37], 0.12.
